Results on one molecule are retold here after patent US20210205409A1, “METHOD FOR THE TREATMENT OF HYPOXIC-ISCHEMIC ENCEPHALOPATHY IN NEWBORNS” (UNIVERSITEIT MAASTRICHT, priority 2018, published 2021).

The subject of this assay is primary fetal endothelial cells (ECs) isolated from rat brains. The assay is described as follows: Trans-endothelial electrical resistance (TEER) of endothelial cell monolayer after oxygen glucose deprivation (OGD). The assay is classed as cell-based.

Method: To assess whether the effects on the BBB integrity are mediated by Annexin A1, we used a recognized model for BBB integrity of primary fetal endothelial cells (ECs) isolated from rat brains at postnatal day 3.
A cellular monolayer of endothelial cells (ECs) was cultured on semipermeable filter inserts (Transwell, 3460 Corning). Trans-endothelial electrical resistance (TEER) was measured as an established quantitative readout for barrier integrity as described before (Srinivasan et al., J. Lab Autom. 2015 (2) 107-126) using an Epithelial Voltohmmeter (EVOM2) with two chopstick electrodes, each containing a silver-silver chloride pellet for measuring voltage and a silver pellet for passing current. Measurements of the resistance in ohm (Ω) across the cell layer were made on the semipermeable membrane by placing one electrode in the upper compartment and the other electrode in the lower compartment. Measurements were performed in duplicate per insert and consistently conducted for several days, 30 minutes after culture media was changed and temperature was kept at 37° C. before and between all measurements. […]
Subsequently TEER was measured in all groups at 1 hour, 3 hours, 6 hours, 12 hours and 24 after normoxia/OGD. […]
At 0 hour, baseline TEER measurements were taken before initiation of OGD. […] TEER in ohms was measured 3 h, 6 h, 12 h and 24 h after treatment. […]

B1: Annexin A1 (protein, UniProt P04083 2-346, looked up)
Annexin A1: AMVSEFLKQAWFIENEEQEYVQTVKSSKGGPGSAVSPYPTFNPSSDVAALHKAIMVKGVDEATIIDILTKRNNAQRQQIKAAYLQETGKPLDETLKKALTGHLEEVVLALLKTPAQFDADELRAAMKGLGTDEDTLIEILASRTNKEIRDINRVYREELKRDLAKDITSDTSGDFRNALLSLAKGDRSEDFGVNEDLADSDARALYEAGERRKGTDVNVFNTILTTRSYPQLRRVFQKYTKYSKHDMNKVLDLELKGDIEKCLTAIVKCATSKPAFFAEKLHQAMKGVGTRHKALIRIMVSRSEIDMNDIKAFYQKMYGISLCQAILDETKGDYEKILVALCGGN
notes: recombinant Annexin A1 protein, preferably of human origin, obtained commercially
In turn, B1 showed a TEER plateau value (fetal rat brain ECs on Transwell, 4 h OGD then treatment with Annexin A1 3 μM, plateau from 12 h onwards, baseline approx. 150 ohms per insert) of 130 ohms. Also, the “effect on endothelial resistance / barrier integrity following OGD” value (fetal rat brain ECs, 4 h OGD, Annexin A1 3 μM) is “restores the endothelial resistance and/or barrier integrity”.
